Source: paper doi:10.1101/2020.07.29.226720 (bioRxiv, 2020)

Biological target: the molecule itself
Experiment: SEC

Protein | stoichiometry N
AthPEPCK1 Δ19 truncated mutant (enzyme, Arabidopsis thaliana, UniProt Q9T074 20-671, looked up) GPVMPKITTGAAKRGSGVCHDDSGPTVNATTIDELHSLQKKRSAPTTPINQNAAAAFAAVSEEERQKIQLQSISASLASLTRESGPKVVRGDPAEKKTDGSTTPAYAHGQHHSIFSPATGAVSDSSLKFTHVLYNLSPAELYEQAIKYEKGSFITSNGALATLSGAKTGRAPRDKRVVRDATTEDELWWGKGSPNIEMDEHTFMVNRERAVDYLNSLEKVFVNDQYLNWDPENRIKVRIVSARAYHSLFMHNMCIRPTQEELESFGTPDFTIYNAGQFPCNRYTHYMTSSTSVDLNLARREMVILGTQYAGEMKKGLFSVMHYLMPKRRILSLHSGCNMGKDGDVALFFGLSGTGKTTLSTDHNRYLIGDDEHCWTETGVSNIEGGCYAKCVDLSREKEPDIWNAIKFGTVLENVVFDEHTREVDYSDKSVTENTRAAYPIEFIPNAKIPCVGPHPTNVILLACDAFGVLPPVSKLNLAQTMYHFISGYTALVAGTEDGIKEPTATFSACFGAAFIMLHPTKYAAMLAEKMKSQGATGWLVNTGWSGGSYGVGNRIKLAYTRKIIDAIHSGSLLKANYKKTEIFGFEIPTEIEGIPSEILDPVNSWSDKKAHKDTLVKLGGLFKKNFEVFANHKIGVDGKLTEEILAAGPIF | 6
AthPEPCK1 Δ101 truncated mutant (enzyme, Arabidopsis thaliana, UniProt Q9T074 102-671, looked up) ESGPKVVRGDPAEKKTDGSTTPAYAHGQHHSIFSPATGAVSDSSLKFTHVLYNLSPAELYEQAIKYEKGSFITSNGALATLSGAKTGRAPRDKRVVRDATTEDELWWGKGSPNIEMDEHTFMVNRERAVDYLNSLEKVFVNDQYLNWDPENRIKVRIVSARAYHSLFMHNMCIRPTQEELESFGTPDFTIYNAGQFPCNRYTHYMTSSTSVDLNLARREMVILGTQYAGEMKKGLFSVMHYLMPKRRILSLHSGCNMGKDGDVALFFGLSGTGKTTLSTDHNRYLIGDDEHCWTETGVSNIEGGCYAKCVDLSREKEPDIWNAIKFGTVLENVVFDEHTREVDYSDKSVTENTRAAYPIEFIPNAKIPCVGPHPTNVILLACDAFGVLPPVSKLNLAQTMYHFISGYTALVAGTEDGIKEPTATFSACFGAAFIMLHPTKYAAMLAEKMKSQGATGWLVNTGWSGGSYGVGNRIKLAYTRKIIDAIHSGSLLKANYKKTEIFGFEIPTEIEGIPSEILDPVNSWSDKKAHKDTLVKLGGLFKKNFEVFANHKIGVDGKLTEEILAAGPIF | 6
